Experimental data published in patent US20140356366A1 (SAMSUNG ELECTRONICS, published 2014).
Residue numbers refer to the chain shown, from its start. Values belong to the binder of their own block, whether it stands above or below them.

Assays:
[1] = molecular target: T1, peptide EAPSQ (SEQ ID NO: 134); experiment: Biacore, huAbF46 immobilized on CM5 chip, peptide injected
T1 peptide: EAPSQ

[2] = molecular target: T2, peptide EEPSQ (SEQ ID NO: 73); experiment: as above
T2 peptide: EEPSQ

[3] = molecular target: T3, peptide EEPAQ (SEQ ID NO: 136); experiment: as above
T3 peptide: EEPAQ

[4] = molecular target: T4, peptide EEPSA (SEQ ID NO: 137); experiment: as above
T4 peptide: EEPSA

[5] = molecular target: T5, peptide AEPSQ (SEQ ID NO: 133); experiment: as above
T5 peptide: AEPSQ

[6] = molecular target: T6, peptide EEASQ (SEQ ID NO: 135); experiment: as above
T6 peptide: EEASQ

[7] = molecular target: T7, synthesized peptide CSPQIEDPSQC (SEQ ID NO: 127), E168D; experiment: PEPSCAN ELISA on synthesized peptides
T7 construct: Core EDPSQ, E168D mutation of c-Met
T7 peptide: CSPQIEDPSQC
Protocol: (§1) The peptides were maintained at room temperature for 30 minutes by using a 5% blocking solution to provoke a reaction (4% ovalbumin, 5% horse serum, and 1% Tween 80). […] Thereafter, the resultant product was treated with rabbit-anti-sheep antibody (SIGMA) and washed with PBS, and the washed product was then treated with peroxidase-attached swine-anti-rabbit antibody (SIGMA) and washed with PBS. Then, the resultant was treated with 2 ul/ml of peroxidase 2,2′-azino-di-3-ethylbenzthiazoline sulfonate (ABTS) (SIGMA) in 3% H₂O₂, and a color reaction was measured after 1 hour.

[8] = molecular target: T8, synthesized peptide CQIEDPSQAPC (SEQ ID NO: 129), E168D; experiment: PEPSCAN ELISA on synthesized peptides
T8 construct: Core EDPSQ, E168D mutation of c-Met
T8 peptide: CQIEDPSQAPC
Protocol: as §1

[9] = molecular target: T9, synthesized peptide CIEDPSQAPDC (SEQ ID NO: 130), E168D; experiment: PEPSCAN ELISA on synthesized peptides
T9 construct: Core EDPSQ, E168D mutation of c-Met
T9 peptide: CIEDPSQAPDC
Protocol: as §1

[10] = molecular target: c-Met on MKN45 stomach cancer cells (human, UniProt P08581 25-1390); experiment: cell-based or functional assay
[11] = molecular target: T10, human c-Met/Fc fusion protein (R&D Systems) (human, UniProt P08581 25-932); experiment: Biacore T100, antibody captured by human Fab capturer on CM5 chip, c-Met-Fc injected
T10 construct: Bought reagent; Treated as one molecule; also called c-Met-Fc (#358-MT/CF, R&D Systems); human c-Met/Fc protein; not shown: Fc part of the bought fusion protein
Protocol: (§2) The anti-c-Met/anti-EGFR bispecific antibody was analyzed for affinity for the two antigens (c-Met/EGFR) using a Biacore T100 instrument (GE). […] The chip surface was regenerated by injecting a 10 mM Glycine-HCl solution (pH 1.5). For affinity evaluation, the data was fitted using the BIAevaluation software (GE Healthcare, Biacore T100 evaluation software).

[12] = molecular target: T11, EGFR-Fc (#344-ER, R&D Systems) (UniProt P00533 25-645); experiment: Biacore T100, antibody captured by human Fab capturer on CM5 chip, EGFR-Fc injected
T11 construct: Bought reagent; only name and catalogue number are printed; not shown: Fc part of the bought fusion protein
Protocol: as §2

T10 sequence (P08581 25-932 limits assumed): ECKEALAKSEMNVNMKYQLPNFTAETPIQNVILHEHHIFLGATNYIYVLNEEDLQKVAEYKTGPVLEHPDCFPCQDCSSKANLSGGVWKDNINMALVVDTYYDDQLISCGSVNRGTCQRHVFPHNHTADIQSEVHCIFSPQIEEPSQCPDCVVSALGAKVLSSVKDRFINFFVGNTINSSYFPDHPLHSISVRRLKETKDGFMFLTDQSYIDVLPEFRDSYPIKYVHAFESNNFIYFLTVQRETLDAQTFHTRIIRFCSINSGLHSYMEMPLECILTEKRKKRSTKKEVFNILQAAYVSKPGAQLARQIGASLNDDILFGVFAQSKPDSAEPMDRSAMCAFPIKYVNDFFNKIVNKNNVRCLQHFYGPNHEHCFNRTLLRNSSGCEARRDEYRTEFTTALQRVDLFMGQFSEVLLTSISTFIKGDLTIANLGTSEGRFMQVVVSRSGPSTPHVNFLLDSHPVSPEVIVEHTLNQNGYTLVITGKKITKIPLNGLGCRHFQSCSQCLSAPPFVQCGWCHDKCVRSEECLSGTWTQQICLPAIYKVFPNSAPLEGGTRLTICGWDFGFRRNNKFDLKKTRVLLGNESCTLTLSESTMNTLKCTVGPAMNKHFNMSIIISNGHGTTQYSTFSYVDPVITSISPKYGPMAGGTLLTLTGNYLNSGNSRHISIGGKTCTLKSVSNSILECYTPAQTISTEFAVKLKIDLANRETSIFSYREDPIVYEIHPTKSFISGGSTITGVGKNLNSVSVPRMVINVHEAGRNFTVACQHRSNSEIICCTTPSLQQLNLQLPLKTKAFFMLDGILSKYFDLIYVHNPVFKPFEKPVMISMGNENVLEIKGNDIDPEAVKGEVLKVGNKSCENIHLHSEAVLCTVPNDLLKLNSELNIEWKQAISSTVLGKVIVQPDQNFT
Chain of c-Met on MKN45 stomach cancer cells (P08581 25-1390): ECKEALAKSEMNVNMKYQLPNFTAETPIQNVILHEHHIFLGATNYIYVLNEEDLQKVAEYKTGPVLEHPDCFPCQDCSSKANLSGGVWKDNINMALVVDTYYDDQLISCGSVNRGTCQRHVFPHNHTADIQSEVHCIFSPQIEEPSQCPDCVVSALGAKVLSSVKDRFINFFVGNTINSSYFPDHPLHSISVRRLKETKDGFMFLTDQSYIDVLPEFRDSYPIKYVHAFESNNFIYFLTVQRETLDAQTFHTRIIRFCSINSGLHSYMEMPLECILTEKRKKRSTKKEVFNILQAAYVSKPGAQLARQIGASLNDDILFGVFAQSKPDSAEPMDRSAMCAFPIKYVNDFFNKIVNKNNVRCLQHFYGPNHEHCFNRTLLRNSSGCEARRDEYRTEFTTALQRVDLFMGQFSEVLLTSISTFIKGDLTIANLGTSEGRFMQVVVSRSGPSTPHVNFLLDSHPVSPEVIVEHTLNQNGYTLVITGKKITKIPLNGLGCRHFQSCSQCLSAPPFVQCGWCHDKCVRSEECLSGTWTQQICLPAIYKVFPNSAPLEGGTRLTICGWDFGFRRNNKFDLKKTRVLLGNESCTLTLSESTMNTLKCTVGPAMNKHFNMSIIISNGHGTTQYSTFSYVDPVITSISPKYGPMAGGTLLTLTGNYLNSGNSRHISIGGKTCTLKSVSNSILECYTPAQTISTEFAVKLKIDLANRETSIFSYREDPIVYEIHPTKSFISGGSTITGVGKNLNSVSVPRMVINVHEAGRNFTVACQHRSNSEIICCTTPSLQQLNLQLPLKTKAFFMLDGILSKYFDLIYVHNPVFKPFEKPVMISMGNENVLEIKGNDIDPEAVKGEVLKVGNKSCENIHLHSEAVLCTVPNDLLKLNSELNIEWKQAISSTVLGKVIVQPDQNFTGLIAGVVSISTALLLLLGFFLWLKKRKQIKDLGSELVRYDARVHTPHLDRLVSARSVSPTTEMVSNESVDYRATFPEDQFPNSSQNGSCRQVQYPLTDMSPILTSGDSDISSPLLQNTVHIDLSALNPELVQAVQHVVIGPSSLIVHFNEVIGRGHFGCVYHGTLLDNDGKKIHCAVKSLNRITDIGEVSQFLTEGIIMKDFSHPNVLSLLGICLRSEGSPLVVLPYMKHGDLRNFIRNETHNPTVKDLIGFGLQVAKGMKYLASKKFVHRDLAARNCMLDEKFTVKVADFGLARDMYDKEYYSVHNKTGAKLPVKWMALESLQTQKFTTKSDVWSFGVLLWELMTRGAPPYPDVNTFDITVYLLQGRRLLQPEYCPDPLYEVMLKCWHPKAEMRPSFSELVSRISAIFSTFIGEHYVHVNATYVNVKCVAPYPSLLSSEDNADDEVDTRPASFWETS

Kd [2]: 1640 pM
Kd [3]: 1430 pM
binding result [7]: no binding
binding result [8]: no binding
binding result [9]: no binding
B1: humanized antibody huAbF46 (H4-heavy / H4-light) (antibody, V domains shown)
VH: EVQLVESGGGLVQPGGSLRLSCAASGFTFTDYYMSWVRQAPGKGLEWLGFIRNKANGYTTEYSASVKGRFTISRDNSKNTLYLQMNSLRAEDTAVYYCARDNWFAYWGQGTLVTVSS
VL: DIQMTQSPSSLSASVGDRVTITCKSSQSLLASGNQNNYLAWHQQKPGKAPKMLIIWASTRVSGVPSRFSGSGSGTDFTLTISSLQPEDFATYYCQQSYSAPLTFGQGTKVEIKR
notes: Purified on Protein A as a whole antibody; also called humanized antibody AbF46
binding result [1]: no binding (tested: 100 nM to 0.39 nM of the peptides)
binding result [4]: no binding (tested: 100 nM to 0.39 nM of the peptides)
binding result [5]: no binding (tested: 100 nM to 0.39 nM of the peptides)
binding result [6]: no binding (tested: 100 nM to 0.39 nM of the peptides)

c-Met degradation (relative total amount of c-Met, ELISA of lysates of MKN45 cells treated 24 hrs with 5 µg/ml antibody) [10]: 88.4%
B2: anti-c-Met/anti-EGFR bispecific antibody ME-03 (bispecific antibody)
heavy: EVQLVESGGGLVQPGGSLRLSCAASGFTFTDYYMSWVRQAPGKGLEWLGFIRNKANGYTTEYSASVKGRFTISRDNSKNTLYLQMNSLRAEDTAVYYCARDNWFAYWGQGTLVTVSSASTKGPSVFPLAPCSRSTSESTAALGCLVKDYFPEPVTVSWNSGALTSGVHTFPAVLQSSGLYSLSSVVTVPSSNFGTQTYTCNVDHKPSNTKVDKTVERKCCVECPPCPAPPVAGPSVFLFPPKPKDTLMISRTPEVTCVVVDVSHEDPEVQFNWYVDGVEVHNAKTKPREEQFNSTFRVVSVLTVVHQDWLNGKEYKCKVSNKGLPAPIEKTISKTKGQPREPQVYTLPPSREEMTKNQVSLTCLVKGFYPSDIAVEWESNGQPENNYKTTPPMLDSDGSFFLYSKLTVDKSRWQQGNVFSCSVMHEALHNHYTQKSLSLSPGKGGGGSGGGGSQVQLVQSGAEVKKPGSSVKVSCKASGFTFTDYKIHWVRQAPGQGLEWMGYINPNSGYSTYASKFQGRVTITADKSTSTAYMELSSLRSEDTAVYYCARLSPGGYYVMDAWGQGTTVTVSSGGGGSGGGGSGGGGSDIQMTQSPSSLSASVGDRVTITCRASQGINNYLNWYQQKPGKAPKLLIYNTNNLQTGVPSRFSGSGSGTEFTLTISSLQPEDEATYYCLQHNSFPTFGQGTKLEIKRT
light: DIQMTQSPSSLSASVGDRVTITCKSSQSLLASGNQNNYLAWYQQKPGKAPKMLIIWASTRVSGVPSRFSGSGSGTDFTLTISSLQPEDFATYYCQQSYSRPYTFGQGTKVEIKRTVAAPSVFIFPPSDEQLKSGTASVVCLLNNFYPREAKVQWKVDNALQSGNSQESVTEQDSKDSTYSLSSTLTLSKADYEKHKVYACEVTHQGLSSPVTKSFNRGEC

Kd [11]: 230 pM
koff [11]: 0.00016 s⁻¹
kon [11]: 670000 M⁻¹ s⁻¹
Kd [12]: 120 pM
koff [12]: 2.7e-05 s⁻¹
kon [12]: 240000 M⁻¹ s⁻¹
B3: anti-c-Met/anti-EGFR bispecific antibody ME-03S (bispecific antibody)
heavy: B2 heavy with G497C, G688C
light: B2 light
notes: Secondary mutant (disulfide-stabilised) anti-EGFR scFv fused to the C-terminus of the Fc of L3-1Y-IgG2

c-Met degradation (relative total amount of c-Met, ELISA of lysates of MKN45 cells treated 24 hrs with 5 µg/ml antibody) [10]: 86.8%
B4: anti-c-Met/anti-EGFR bispecific antibody ME-01 (bispecific antibody)
heavy: B2 heavy with I504F, S515Q, L634R, E671F
light: B2 light
